Laboratory results from the supplement of paper PMC9112550, “Optimization of the antimicrobial peptide Bac7 by deep mutational scanning” (BMC Biology, 2022).

Tested on: Escherichia coli TOP10
Assay: shrunken log2 fold change of peptide-encoding DNA abundance (4.5 h post-induction vs induction); higher = less antimicrobial activity (less host growth inhibition)
Conditions: time post-induction: 4.5 h; library: site-saturation at positions 5, 18, 19, 20
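Also: peptides expressed intracellularly from a pBAD plasmid library in pooled LB shake-flask culture, induced with 0.3% L-arabinose, DNA abundance read by NGS, three biological replicates, DESeq2 with apeglm shrinkage.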

RRIRIRPPRLPRPRPRPDLWPRP
shrunken log2 fold change: 0.078

RRIRIRPPRLPRPRPRPDMFPRP
shrunken log2 fold change: -0.17

RRIRIRPPRLPRPRPRPDMGPRP
shrunken log2 fold change: -0.0742

RRIRIRPPRLPRPRPRPDMMPRP
shrunken log2 fold change: 0.0293

RRIRIRPPRLPRPRPRPDNVPRP
shrunken log2 fold change: 0.0156

RRIRIRPPRLPRPRPRPDQIPRP
shrunken log2 fold change: -0.0795

RRIRIRPPRLPRPRPRPDRFPRP
shrunken log2 fold change: 0.0544

RRIRIRPPRLPRPRPRPDTHPRP
shrunken log2 fold change: -1.12

RRIRIRPPRLPRPRPRPDTNPRP
shrunken log2 fold change: -0.73

RRIRIRPPRLPRPRPRPDTSPRP
shrunken log2 fold change: -0.283

RRIRIRPPRLPRPRPRPDTVPRP
shrunken log2 fold change: -0.301

RRIRIRPPRLPRPRPRPDWKPRP
shrunken log2 fold change: 0.036

RRIRIRPPRLPRPRPRPDYQPRP
shrunken log2 fold change: -0.611

RRIRIRPPRLPRPRPRPDYSPRP
shrunken log2 fold change: -1.21

RRIRIRPPRLPRPRPRPEADPRP
shrunken log2 fold change: 0.196

RRIRIRPPRLPRPRPRPEAFPRP
shrunken log2 fold change: 0.0813

RRIRIRPPRLPRPRPRPEDCPRP
shrunken log2 fold change: 0.00952

RRIRIRPPRLPRPRPRPEDEPRP
shrunken log2 fold change: 0.0112

RRIRIRPPRLPRPRPRPEDFPRP
shrunken log2 fold change: 0.00408

RRIRIRPPRLPRPRPRPEDSPRP
shrunken log2 fold change: -0.0125

RRIRIRPPRLPRPRPRPEFPPRP
shrunken log2 fold change: -0.0115

RRIRIRPPRLPRPRPRPEGGPRP
shrunken log2 fold change: 0.155

RRIRIRPPRLPRPRPRPEHKPRP
shrunken log2 fold change: -0.199

RRIRIRPPRLPRPRPRPEHNPRP
shrunken log2 fold change: -0.505

RRIRIRPPRLPRPRPRPEIGPRP
shrunken log2 fold change: -0.0838

RRIRIRPPRLPRPRPRPEINPRP
shrunken log2 fold change: -0.993

RRIRIRPPRLPRPRPRPEKGPRP
shrunken log2 fold change: -0.257

RRIRIRPPRLPRPRPRPEKKPRP
shrunken log2 fold change: -0.0556

RRIRIRPPRLPRPRPRPEKNPRP
shrunken log2 fold change: -0.232

RRIRIRPPRLPRPRPRPELHPRP
shrunken log2 fold change: -0.2

RRIRIRPPRLPRPRPRPEMGPRP
shrunken log2 fold change: -0.105

RRIRIRPPRLPRPRPRPEMSPRP
shrunken log2 fold change: -0.0264

RRIRIRPPRLPRPRPRPENCPRP
shrunken log2 fold change: -0.00941

RRIRIRPPRLPRPRPRPEPPPRP
shrunken log2 fold change: 0.254

RRIRIRPPRLPRPRPRPEVQPRP
shrunken log2 fold change: -0.022

RRIRIRPPRLPRPRPRPEWRPRP
shrunken log2 fold change: 0.257

RRIRIRPPRLPRPRPRPFCSPRP
shrunken log2 fold change: -0.426

RRIRIRPPRLPRPRPRPFCWPRP
shrunken log2 fold change: -0.0029

RRIRIRPPRLPRPRPRPFDQPRP
shrunken log2 fold change: -0.385

RRIRIRPPRLPRPRPRPFEKPRP
shrunken log2 fold change: -0.103

RRIRIRPPRLPRPRPRPFESPRP
shrunken log2 fold change: -0.218

RRIRIRPPRLPRPRPRPFEVPRP
shrunken log2 fold change: -0.162

RRIRIRPPRLPRPRPRPFGWPRP
shrunken log2 fold change: 0.468

RRIRIRPPRLPRPRPRPFIGPRP
shrunken log2 fold change: -0.227

RRIRIRPPRLPRPRPRPFINPRP
shrunken log2 fold change: -0.365

RRIRIRPPRLPRPRPRPFIPPRP
shrunken log2 fold change: -0.697

RRIRIRPPRLPRPRPRPFKPPRP
shrunken log2 fold change: -0.395

RRIRIRPPRLPRPRPRPFLMPRP
shrunken log2 fold change: -0.314

RRIRIRPPRLPRPRPRPFMYPRP
shrunken log2 fold change: -1.36

RRIRIRPPRLPRPRPRPFNCPRP
shrunken log2 fold change: -0.0819

RRIRIRPPRLPRPRPRPFNWPRP
shrunken log2 fold change: -0.155

RRIRIRPPRLPRPRPRPFPLPRP
shrunken log2 fold change: -0.547

RRIRIRPPRLPRPRPRPFQPPRP
shrunken log2 fold change: -0.407

RRIRIRPPRLPRPRPRPFSYPRP
shrunken log2 fold change: 3.51

RRIRIRPPRLPRPRPRPFVYPRP
shrunken log2 fold change: -0.625

RRIRIRPPRLPRPRPRPFYKPRP
shrunken log2 fold change: -0.0824

RRIRIRPPRLPRPRPRPFYTPRP
shrunken log2 fold change: -0.324

RRIRIRPPRLPRPRPRPGCDPRP
shrunken log2 fold change: 0.0474

RRIRIRPPRLPRPRPRPGDFPRP
shrunken log2 fold change: -0.162

RRIRIRPPRLPRPRPRPGDWPRP
shrunken log2 fold change: 0.585

RRIRIRPPRLPRPRPRPGELPRP
shrunken log2 fold change: -0.0665

RRIRIRPPRLPRPRPRPGGGPRP
shrunken log2 fold change: 0.659

RRIRIRPPRLPRPRPRPGGVPRP
shrunken log2 fold change: 0.0574

RRIRIRPPRLPRPRPRPGIHPRP
shrunken log2 fold change: -0.31

RRIRIRPPRLPRPRPRPGIMPRP
shrunken log2 fold change: -0.137

RRIRIRPPRLPRPRPRPGKCPRP
shrunken log2 fold change: -0.215

RRIRIRPPRLPRPRPRPGKRPRP
shrunken log2 fold change: 0.0192

RRIRIRPPRLPRPRPRPGLSPRP
shrunken log2 fold change: -0.0218

RRIRIRPPRLPRPRPRPGLVPRP
shrunken log2 fold change: 0.0385

RRIRIRPPRLPRPRPRPGMDPRP
shrunken log2 fold change: -0.295

RRIRIRPPRLPRPRPRPGMLPRP
shrunken log2 fold change: 0.0213

RRIRIRPPRLPRPRPRPGNRPRP
shrunken log2 fold change: -0.0134

RRIRIRPPRLPRPRPRPGPFPRP
shrunken log2 fold change: -0.239

RRIRIRPPRLPRPRPRPGRAPRP
shrunken log2 fold change: 0.431

RRIRIRPPRLPRPRPRPGSYPRP
shrunken log2 fold change: -0.277
